The results in this text go back to US11911450B2, “Method for managing pain” (UNIVERSITY OF MIAMI, priority 2017, dated 2024).

Assay [1] relates to intracellular calcium release in NBL cells. Nature of the assay: ATP-stimulated calcium release in NBL cells (Fura2 imaging). The assay is classed as cell-based, human. Conditions: 1 μM ATP, vs empty vector. As for the experimental part: Pharmacodynamics—Bioassay of Calcium Release: Fifteen mm glass coverslips (cat #72228 Electron Microscopy Sciences, Hatfield, PA) were coated with poly-D-Lysine (Sigma) followed by Laminin and 1×10^5 cells were seeded on each coverslip. Twenty-four hrs later, cells were transfected with AAV2-ITR, AAV2-V5-Car10, or AAV2-V5-CA10 vectors as previously described. In embodiments wherein AAV2 is not employed, other expression vectors (including viral vectors) are used. Fura-2AM (cat #F1221 ThermoFisher scientific, Waltham, MA) was dissolved in DMSO (50 μg in 50 μl) and 1% pluronic acid-127 (cat #P2443 Sigma, St Louis, MO) as the stock solution. Forty eight hrs after seeding, cells were loaded with 2 μM Fura-2AM dye for 45 min at room temperature in the dark in a standard Ca+2 buffer solution containing: 125 mM NaCl, 2 mM MgCl, 4.5 mM KCl, 10 glucose, 20 mM HEPES, 2 mM CaCl2, pH 7.4.25. Following dye loading, coverslips were washed with Ca^+2 buffer solution. […] Regions of interest over the field of view were selected and the mean pixels intensity at each frame was measured. Data was plotted as ratio fluorescence intensity versus time and subsequently converted to a relative scale. […]

A further assay concerns the target ITPR1 (Homo sapiens, UniProt Q14643). In words: NGF-induced intracellular calcium release / ITPR1 activation in NBL cells. The assay is classed as cell-based. Details: endogenous in cells.

ITPR1, sequence (Q14643 whole entry): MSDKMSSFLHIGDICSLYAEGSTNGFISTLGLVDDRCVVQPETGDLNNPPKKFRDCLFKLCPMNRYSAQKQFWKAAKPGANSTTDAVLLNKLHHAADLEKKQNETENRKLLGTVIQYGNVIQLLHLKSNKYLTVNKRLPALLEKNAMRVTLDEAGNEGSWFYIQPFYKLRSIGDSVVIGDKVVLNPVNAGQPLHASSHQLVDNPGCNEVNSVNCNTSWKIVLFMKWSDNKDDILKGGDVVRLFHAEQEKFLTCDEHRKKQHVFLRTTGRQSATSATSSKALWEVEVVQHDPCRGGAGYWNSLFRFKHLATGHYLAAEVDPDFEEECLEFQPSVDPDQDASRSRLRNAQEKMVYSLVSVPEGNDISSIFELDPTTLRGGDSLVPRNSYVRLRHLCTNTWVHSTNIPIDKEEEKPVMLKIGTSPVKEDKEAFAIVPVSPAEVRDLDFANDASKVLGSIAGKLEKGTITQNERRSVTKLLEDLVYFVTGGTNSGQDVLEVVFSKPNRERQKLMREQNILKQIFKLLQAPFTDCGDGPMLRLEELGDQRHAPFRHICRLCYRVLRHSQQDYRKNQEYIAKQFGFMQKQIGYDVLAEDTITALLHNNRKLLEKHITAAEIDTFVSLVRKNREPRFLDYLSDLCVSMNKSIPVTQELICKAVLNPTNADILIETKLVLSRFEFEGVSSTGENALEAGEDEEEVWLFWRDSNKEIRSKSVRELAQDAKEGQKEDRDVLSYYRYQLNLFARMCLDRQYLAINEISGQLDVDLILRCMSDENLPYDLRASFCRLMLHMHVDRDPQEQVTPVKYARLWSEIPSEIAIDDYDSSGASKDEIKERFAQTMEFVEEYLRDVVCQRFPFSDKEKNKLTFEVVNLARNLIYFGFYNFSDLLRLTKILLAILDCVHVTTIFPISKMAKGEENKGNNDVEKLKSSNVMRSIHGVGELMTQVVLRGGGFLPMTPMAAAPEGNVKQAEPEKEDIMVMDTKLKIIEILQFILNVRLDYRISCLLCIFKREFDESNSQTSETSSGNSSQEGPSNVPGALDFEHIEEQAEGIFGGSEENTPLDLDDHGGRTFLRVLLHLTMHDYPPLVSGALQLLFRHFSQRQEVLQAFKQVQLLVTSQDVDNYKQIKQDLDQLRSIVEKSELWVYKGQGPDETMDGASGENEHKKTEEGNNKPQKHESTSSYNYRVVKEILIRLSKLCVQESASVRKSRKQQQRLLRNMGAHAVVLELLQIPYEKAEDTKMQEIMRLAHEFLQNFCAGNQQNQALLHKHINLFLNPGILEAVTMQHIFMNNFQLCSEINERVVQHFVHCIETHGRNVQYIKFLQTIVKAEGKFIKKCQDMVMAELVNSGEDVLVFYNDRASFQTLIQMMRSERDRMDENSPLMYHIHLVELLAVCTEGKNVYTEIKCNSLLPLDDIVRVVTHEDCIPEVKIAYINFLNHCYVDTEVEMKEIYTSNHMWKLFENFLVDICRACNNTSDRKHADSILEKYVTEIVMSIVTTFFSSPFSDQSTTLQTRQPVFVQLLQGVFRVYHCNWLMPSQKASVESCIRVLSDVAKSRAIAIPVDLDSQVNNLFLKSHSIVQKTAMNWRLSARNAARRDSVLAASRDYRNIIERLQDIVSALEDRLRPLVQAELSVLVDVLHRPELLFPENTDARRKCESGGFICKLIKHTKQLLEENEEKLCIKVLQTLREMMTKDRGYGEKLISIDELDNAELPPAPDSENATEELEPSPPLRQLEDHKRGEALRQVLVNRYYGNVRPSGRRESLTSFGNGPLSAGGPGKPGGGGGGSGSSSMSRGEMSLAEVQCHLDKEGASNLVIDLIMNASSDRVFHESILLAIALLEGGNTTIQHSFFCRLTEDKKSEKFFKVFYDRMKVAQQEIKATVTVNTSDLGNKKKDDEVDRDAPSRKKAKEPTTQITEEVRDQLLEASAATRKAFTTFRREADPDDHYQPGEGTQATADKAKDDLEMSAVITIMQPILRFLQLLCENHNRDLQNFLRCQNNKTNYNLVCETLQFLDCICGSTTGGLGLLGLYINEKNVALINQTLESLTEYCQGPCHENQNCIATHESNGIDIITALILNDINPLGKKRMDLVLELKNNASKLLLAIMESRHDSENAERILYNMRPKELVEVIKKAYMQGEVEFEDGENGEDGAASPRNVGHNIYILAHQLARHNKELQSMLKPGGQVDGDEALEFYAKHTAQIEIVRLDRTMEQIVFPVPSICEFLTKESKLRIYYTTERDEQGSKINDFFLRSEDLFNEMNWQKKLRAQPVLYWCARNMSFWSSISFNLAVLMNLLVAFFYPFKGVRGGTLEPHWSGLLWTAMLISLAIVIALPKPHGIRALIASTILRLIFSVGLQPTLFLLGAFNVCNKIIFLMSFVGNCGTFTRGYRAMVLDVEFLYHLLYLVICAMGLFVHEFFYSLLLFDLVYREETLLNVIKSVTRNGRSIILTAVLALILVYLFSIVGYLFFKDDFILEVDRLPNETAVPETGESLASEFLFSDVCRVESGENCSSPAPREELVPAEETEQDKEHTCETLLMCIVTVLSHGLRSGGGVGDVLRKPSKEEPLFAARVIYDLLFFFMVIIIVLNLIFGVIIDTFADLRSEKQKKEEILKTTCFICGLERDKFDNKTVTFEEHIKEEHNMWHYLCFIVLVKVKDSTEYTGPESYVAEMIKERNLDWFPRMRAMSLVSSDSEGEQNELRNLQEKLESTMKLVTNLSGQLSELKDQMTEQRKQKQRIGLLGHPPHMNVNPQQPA

B1: CA8-201: wildtype full length CA8 transcript/peptide (protein, UniProt P35219 1-290, looked up)
chain: MADLSFIEDTVAFPEKEEDEEEEEEGVEWGYEEGVEWGLVFPDANGEYQSPINLNSREARYDPSLLDVRLSPNYVVCRDCEVTNDGHTIQVILKSKSVLSGGPLPQGHEFELYEVRFHWGRENQRGSEHTVNFKAFPMELHLIHWNSTLFGSIDEAVGKPHGIAIIALFVQIGKEHVGLKAVTEILQDIQYKGKSKTIPCFNPNTLLPDPLLRDYWVYEGSLTIPPCSEGVTWILFRYPLTISQLQIEEFRRLRTHVKGAELVEGCDGILGDNFRPTQPLSDRVIRAAFQ
modifications: full-length V5 tag
notes: wildtype full length CA8 transcript/peptide
In the case of B1, the ATP-stimulated calcium release result in assay [1] is listed as “able to inhibit Ca^2+ release”. For the same molecule, in the assay with ITPR1, the “NGF-induced ITPR1 activation (pITPR1)” value is “inhibits NGF-induced ITPR1 activation (pITPR1)”. Further, the “NGF-induced intracellular calcium release” value in the assay with ITPR1 (NBL cells) is reported as “nearly completely”.
